Experimental findings from patent US20260116967A1 (CSPC MEGALITH BIOPHARMACEUTICAL, published 2026) are described below.

Test [1] has as its target T1, recombinant human PVRIG protein (PVRIG extracellular full-length protein) (human, UniProt Q6DKI7 41-171).
T1 construct: also called recombinant PVRIG protein; soluble PVRIG
T1 sequence: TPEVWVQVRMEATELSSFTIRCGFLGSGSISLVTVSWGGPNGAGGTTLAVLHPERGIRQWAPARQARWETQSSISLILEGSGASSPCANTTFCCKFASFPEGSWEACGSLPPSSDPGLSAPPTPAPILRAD
In words: ELISA, human PVRIG protein coated at 500 ng/ml. Here is the method:
The affinity of humanized antibody to recombinant human PVRIG protein was determined by ELISA. The PVRIG protein was diluted to 500 ng/ml, and coated on the ELISA plate. After blocking, 3-fold gradient dilution of antibody (0-66.7 nM) was added, then performed color development and reading after incubation with goat anti-human secondary antibody.

Test [2] concerns the target T2, cynomolgus monkey PVRIG on 293T-cynoPVRIG cells (cynomolgus monkey, UniProt A0A2K5WVV8 41-322).
T2 construct: whole, on cells; also called full-length monkey PVRIG
T2 sequence: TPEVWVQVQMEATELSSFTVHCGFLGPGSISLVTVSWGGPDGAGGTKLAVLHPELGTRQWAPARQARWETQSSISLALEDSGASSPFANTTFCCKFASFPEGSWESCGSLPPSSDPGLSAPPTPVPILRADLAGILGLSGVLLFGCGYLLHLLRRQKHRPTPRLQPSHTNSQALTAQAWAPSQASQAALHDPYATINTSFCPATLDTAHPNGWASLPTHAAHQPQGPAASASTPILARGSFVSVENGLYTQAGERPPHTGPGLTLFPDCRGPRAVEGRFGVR
In words: flow cytometry on 293T-cynoPVRIG cells. Here is the method:
The cells were seeded in a 96-well plate at a density of 2×10⁶, 100 μl/well, then washed three times with FACS buffer and the supernatant was discarded. Antibodies diluted with PBS buffer (0-2.5 nM) in a gradient were added to incubate at 4° C. for 1 h. The cells were washed three times with FACS buffer, and then labeled with Alexa Fluor 488-labeled goat anti-human IgG antibody at 4° C. in the dark for 45 min. The cells were washed three times with FACS buffer, and the fluorescence intensity of the cells was read by flow cytometry.
Background: A flow cytometer gives signals particle by particle.

Test [3] concerns the target T3, PVRIG-hFc protein (human, UniProt Q6DKI7 41-171, limits assumed).
T3 construct: also called human PVRIG protein; not shown: human Fc (hFc)
T3 sequence (looked up): T1 sequence
In words: blocking flow cytometry: antibody titrated against PVRIG-hFc (1 ug/ml) binding to 293T-CD112 cells. Here is the method:
The cells were washed three times with FACS buffer, and then labeled with Alexa Fluor 488-labeled goat anti-human IgG antibody at 4° C. in the dark for 50 min. Then the cells were washed three times with FACS buffer, and the fluorescence intensity of the cells was read by flow cytometry.

Test [4] concerns the target T4, recombinant cynomolgus monkey (Cyno) PVRIG protein (cynomolgus monkey, UniProt A0A2K5WVV8 41-171).
T4 construct: also called soluble cynomolgus monkey PVRIG
T4 sequence: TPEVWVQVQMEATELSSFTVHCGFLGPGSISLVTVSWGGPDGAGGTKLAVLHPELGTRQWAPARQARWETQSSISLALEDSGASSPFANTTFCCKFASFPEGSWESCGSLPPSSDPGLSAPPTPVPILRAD
In words: ELISA, Cyno-PVRIG protein coated at 500 ng/ml. Here is the method: The affinity of humanized antibody to recombinant cynomolgus monkey (Cyno) PVRIG protein was determined by ELISA. The Cyno-PVRIG protein was diluted to 500 ng/ml, and coated on the ELISA plate. After blocking, a 3-fold gradient dilution of the antibody (0-33.3 nM) was added. After incubation with goat anti-human secondary antibody for 1 hour, the plate was washed and the color was developed to read.
On the technique in general: In an ELISA, binding on a coated surface is turned into a signal by an enzyme label.

Test [5] concerns the target T5, human PVRIG-His protein (human, UniProt Q6DKI7 41-171, limits assumed).
T5 construct: not shown: His tag
T5 sequence (looked up): T1 sequence
In words: BLI (Fortebio), PVRIG-His on HIS1K biosensor, antibody as analyte. Here is the method:
The HIS1K biosensor was used, and human PVRIG-His protein was immobilized on the biosensor to a binding response threshold of 0.3 nm. After a 120 s baseline step, the sensor was immersed in an anti-PVRIG antibody diluted with 0.02% PBST buffer, with a starting antibody concentration of 25 nM, performing gradient dilution of 2-fold concentration with 7 gradients set. The binding and dissociation time of the immobilized substance and the analyte were 120 s and 300 s, respectively. The affinity data of antigen and antibody was calculated by regression analysis software based on the binding curve.
Background: Biolayer interferometry detects binding as a change in optical thickness at a sensor tip.

For test [6], the target named is T6, human PVRIG on Jurkat-hPVRIG cells (human, UniProt Q6DKI7 41-326).
T6 construct: whole, on cells; also called PVRIG on cell surface; effector cells stably expressing PVRIG
T6 sequence (looked up): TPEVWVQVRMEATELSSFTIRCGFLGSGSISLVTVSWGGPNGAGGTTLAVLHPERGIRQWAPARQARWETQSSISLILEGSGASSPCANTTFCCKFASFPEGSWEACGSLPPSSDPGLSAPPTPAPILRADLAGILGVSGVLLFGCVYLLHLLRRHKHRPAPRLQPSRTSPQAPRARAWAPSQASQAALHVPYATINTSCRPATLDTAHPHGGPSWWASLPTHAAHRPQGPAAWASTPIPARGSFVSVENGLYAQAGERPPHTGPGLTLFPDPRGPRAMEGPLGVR
Put plainly: flow cytometry on Jurkat-hPVRIG cells. Here is the method: The cells were inoculated at a density of 2×10⁶/ml in 96-well plate, 100 μl/well. 4-fold gradient dilutions of antibodies (0-66.7 nM) were added to incubate at 4° C. for 1 h. Goat anti-human secondary antibody was added, and the cells were labeled in the dark at 4° C. for 45 min. After the cells were collected and washed, the fluorescence intensity of the cells was read by flow cytometry. […] At the same time, the affinity of Hab43F7C9.12 in recognizing cell surface PVRIG is better than that of the control molecule SRF813.

Test [7] deals with T3, PVRIG-hFc protein. Put plainly: blocking ELISA: antibody titrated against PVRIG-hFc binding to coated CD112-His. Here is the method:
The ELISA method was used to determine the ability of humanized PVRIG antibody to block the binding of human CD112 protein to human PVRIG protein. The CD112-His protein was diluted to a concentration of 1 μg/ml, and coated on the ELISA plate. A 3-fold gradient dilution of the antibody (0-133 nM) was mixed with the PVRIG-hFc protein and added to the coated ELISA plate to incubate at 37° C. for 1 hour. After washing the plate, the HRP-labeled goat anti-human Fc antibody was added to incubate at 37° C. for 1 hour. After washing the plate, the color developing solution was added, then adding the stop solution after 5 minutes and reading the results. The blocking results of the antibodies obtained are shown in FIG. 6 and Table 12 after GraphPad fitting. […] At the same time, Hab1B10E8.6, Hab21F10C10.12 and Hab43F7C9.12 have better ELISA blocking ability than the control molecule SRF813.

Test [8] concerns the target T6, human PVRIG on Jurkat-hPVRIG cells. In words: cell-based or functional assay.
Test [9] deals with T1, recombinant human PVRIG protein (PVRIG …). In words: ELISA, PVRIG extracellular protein coated at 500 ng/ml. Here is the method: VH and VL were respectively constructed into a eukaryotic expression vector comprising hIgG1-kappa constant region. The obtained eukaryotic expression vector was transiently transfected into HEK-293 cells and cultured for 6 days. The culture supernatant was harvested and purified by Protein A to obtain target antibodies, which were named 21F10C10-hIgG1 and 43F7C9-hIgG1, respectively. The affinity of the antibodies to the recombinant PVRIG protein was determined by ELISA. The PVRIG extracellular full-length protein diluted to a concentration of 500 ng/ml was coated on the ELISA plate. The plate was washed 3 times with PBST buffer, and then 200 μl of PBS buffer containing 2% BSA was added, and the plate was blocked at 37° C. for 2 h. After the blocking was completed, the plate was washed 3 times with PBST buffer; 3-fold gradient dilutions of the test antibody (0-33.3 nM) were added, incubated at 37° C. for 2 h; then the plate was washed 3 times with PBST buffer. Horseradish peroxidase-labeled goat anti-human antibody was added, incubated at 37° C. for 1 h; then the plate was washed three times with PBST buffer. TMB single-component color developing solution was added for color development, reading the absorbance value after adding the stop solution.

B1: Hab1B10E8.6 (antibody, V domains shown)
VH: QVQLVQSGAEVKKPGASVKVSCKASGYSFPSYWMHWVRQAPGQGLEWIGEINPSNGLTNYNEQFRNRVTMTVDTSTSTVYMELSSLRSEDTAVYYCARHHGSTYYALDSWGQGTLVTVSS
VL: DIVMTQSPDSLAVSLGERATINCKSSQSLLNSINQKNFLAWYQQKPGQPPKLLVYFASTRESGVPDRFSGSGSGTDFTLTISSLQAEDVAVYFCQQHYSTPPTFGGGTKLEIK
notes: Humanized antibody; also called Hab1B10E8-VH.1b + Hab1B10E8-VL.1b
As to B1, the EC50 in test [1] was 0.0869 nM; in test [2], 0.124 nM; in test [3] it was 2.56 nM; in test [4], 0.141 nM; in test [6], 0.0501 nM; in test [7] it was 0.285 nM. The Kd in [5] is below 0.001 nM. Besides, the koff in test [5] was below 1e-07 s⁻¹. Further, the kon in test [5] was 782000 M⁻¹ s⁻¹. Moreover, the “EC50 (nM) of reporter genes” value in [8] came to 0.184 nM.

B2: SRF813-IgG1 (antibody, V domains shown)
VH: QVQLVQSGAEVKKPGSSVKVSCKASGGTFSSAAISWVRQAPGQGLEWMGNIIPIVGIANYAQKFQGRVTITADESTSTAYMELSSLRSEDTAVYYCARDTGRGYTRHFWFDPWGQGTLVTVSS
VL: DIQMTQSPSSLSASVGDRVTITCRASQSISSYLNWYQQKPGKAPKLLIYAASSLQSGVPSRFSGSGSGTDFTLTISSLQPEDFATYYCQQSDILYTFGGGTKVEIK
Turning to B2, the EC50 in test [2] amounted to 0.15 nM; in test [6], 0.0497 nM; in test [7], 0.431 nM. Moreover, the “EC50 (nM) of reporter genes” value in test [8] is 0.963 nM.

B3: Hab21F10C10.12 (antibody, V domains shown)
VH: QVQLVQSGAEVKKPGASVKVSCKASGYTFINNFIEWVRQAPGQGLEWMGVINPGSGDANYAQKFQGRVTMTRDTSISTAYMELSRLRSDDTAVYYCASHWLAYWGQGTTVTVSS
VL: EIVMTQSPPTLSLSPGERVTLSCRSSQSLLSSGNQKNYLSWYQQKPGQAPRLLIYGASTRETGIPARFSGSGSGTDFTLTISSLQPEDFAVYYCQNGHFYPYTFGGGTKLEIK
notes: Humanized antibody; also called Hab21F10C10-VH.1d + Hab21F10C10-VL.1c
On to B3, for which the EC50 stood at 0.165 nM in test [1]; 0.267 nM in test [2]; 2.52 nM in test [3]; 0.364 nM in test [4]; 0.0553 nM in test [6]; 0.226 nM in [7]. In [5], this molecule registered a Kd below 0.001 nM. This molecule gave a koff in [5] below 1e-07 s⁻¹. Further, the kon in test [5] worked out at 837000 M⁻¹ s⁻¹. Moreover, in [8], the “EC50 (nM) of reporter genes” value came out at 0.164 nM.

B4: 43F7C9-hIgG1 (antibody, V domains shown)
VH: DVQLQESGPGLVKPSQSLSLTCTVTGYSITSDYAWNWIRQFPGNRLEWMGYIRYNGNTNYNPSLKSRISITRDTSKNQFFLQLNSVTTEDTATYYCAIIYYDYDGFVYWGQGTLVTVSA
VL: DILLTQSPATLSVTPGETVSLSCRASQNVYENLHWYQQKSHRSPRLLIKFASDSISGIPSRFTGSGSGTDYTLSINSVKPEDEGIYYCLQLYSTPYTFGGGTELEIK
notes: also called 43H7C9-hIgG1; 43H7C9
B4: the EC50 in [9] is 0.29 nM.

B5: Hab43F7C9.12 (antibody, V domains shown)
VH: QVQLQESGPGLVKPSETLSLTCTVSGYSISSDYAWNWIRQPPGKGLEWIGYIRYNGNTNYNPSLKSRVTISVDTSKNQFSLKLSSVTAADTAVYYCAIIYYDYDGFVYWGQGTTVTVSS
VL: DIQMTQSPSSLSASVGDRVTITCRASQNVYENLHWYQQKPGKAPKLLIKFASDSISGVPSRFSGSGSGTDFTLTISSLQPEDFATYYCLQLYSTPYTFGGGTKLEIK
notes: Humanized antibody; also called Hab43F7C9-VH.1d + Hab43F7C9-VL.1c; 43H7C9.12
As to B5, the EC50 worked out at 0.145 nM in test [1]; 0.108 nM in test [2]; 1.46 nM in [3]; 0.0797 nM in test [4]; 0.0178 nM in [6]; 0.258 nM in test [7]. Also, the Kd in test [5] is below 0.001 nM. The koff in test [5] was below 1e-07 s⁻¹. This molecule also displayed a kon in test [5] of 963000 M⁻¹ s⁻¹. Besides, the “EC50 (nM) of reporter genes” value in test [8] was 0.0651 nM.

B6: 21F10C10-hIgG1 (antibody, V domains shown)
VH: QVQLQQSGAELVRPGTSVKVSCKASGYAFINNFIEWVKQRPGQGLEWIGVINPGSGDANYNEKFKGKATLTADKSSTTAYIQLSSLTSDDSAVYFCASHWLAYWGQGTLVTVSA
VL: DIVMTQSPSSLSVSAGEKVTMSCKSSQSLLSSGNQKNYLAWYQQKPGQPPKLLIYGASTRESGVPDRFTGSGSGTDFTLTISSVQAEDLAVYYCQNGHFYPYTFGGGTKLEIK
notes: also called 21F10C10 chimeric antibody
As for B6, the EC50 in test [9] stood at 0.122 nM.

The EC50 is the concentration needed to bring the measured effect to its halfway point. As a reminder, the Kd is the free concentration of one partner at which half of the binding sites on the other are occupied at equilibrium, for simple one-to-one binding. One may read the koff as the rate constant with which the complex falls apart. The term kon denotes a measure of how fast the partners come together.
